Measurements reported in patent US7825096B2, “O6-alkylguanine-DNA alkyltransferase inactivators and beta-glucuronidase cleavable prodrugs” (The United States of America as represented by the …, priority 2004, dated 2010).

B1: E. coli β-glucuronidase (Escherichia coli K-12) (protein)
chain: MLRPVETPTREIKKLDGLWAFSLDRENCGIDQRWWESALQESRAIAVPGSFNDQFADADIRNYAGNVWYQREVFIPKGWAGQRIVLRFDAVTHYGKVWVNNQEVMEHQGGYTPFEADVTPYVIAGKSVRITVCVNNELNWQTIPPGMVITDENGKKKQSYFHDFFNYAGIHRSVMLYTTPNTWVDDITVVTHVAQDCNHASVDWQVVANGDVSVELRDADQQVVATGQGTSGTLQVVNPHLWQPGEGYLYELCVTAKSQTECDIYPLRVGIRSVAVKGEQFLINHKPFYFTGFGRHEDADLRGKGFDNVLMVHDHALMDWIGANSYRTSHYPYAEEMLDWADEHGIVVIDETAAVGFNLSLGIGFEAGNKPKELYSEEAVNGETQQAHLQAIKELIARDKNHPSVVMWSIANEPDTRPQGAREYFAPLAEATRKLDPTRPITCVNVMFCDAHTDTISDLFDVLCLNRYYGWYVQSGDLETAEKVLEKELLAWQEKLHQPIIITEYGVDTLAGLHSMYTDMWSEEYQCAWLDMYHRVFDRVSAVVGEQVWNFADFATSQGILRVGGNKKGIFTRDRKPKSAAFLLQKRWTGMNFGEKPQQGGKQ
notes: purchased Sigma type IX-A
B2: bovine liver β-glucuronidase (Bos taurus) (protein)
chain: MLRGSAGAWAVLGPLLWGCGLSLLQGGMLYPRESRSRERKELDGLWSFRADFSDNRRQGFEQQWYRAPLRESGPTLDMPVPSSFNDVGQDGQLRSFVGWVWYEREITLPQRWTEDLGTRVVLRIGSAHYYAIVWVNGVHVLEHEGGHLPFEADISKLVQSGPLSSCRITIAINNTLSPHTLPPGTILYKTDPSMYPKGYFVQNTKFDFFNYAGLHRSVLLYTTPTTYIDDITVTTDMDQDIGLVNYQIIVQGSDHFQVDVSLLDEEGKVMAKGAGAEGQLQVPSAHLWWPYLMHEHPAYLYSLEVKLTAQTAVGPVSDFYTLPVGIRTVAVTKSQFLINGKPFYFRGVNKHEDADIRGKGFDWPLLVKDFNLLRWLGANAFRTSHYPYSEEVLQLCDRYGIVVIDESPGVGIVLVESFSNVSLQHHLEVMEEMIRRDKNHPAVVMWSLANEPASFLKPAGYYFKTLIAHTKALDPSRPVTFVTNTNYEADLGAPYVDIICVNSYYSWYHDYGHMEVIQLQLATQFENWYKAYQKPMIQSEYGADAIEGFHEDPPLMFSEEYQKGLLQQYHVVLDQKRKEYVVGELIWNFADFMTNQSPVRMIGNRKGIFTRQRQPKSAAFLLRERYWKLANETRYQRSAVTSQCVGSGLFTV
notes: bovine liver β-glucuronidase (Sigma type B-10) (10.2 units/mg of protein); purchased Sigma type B-10; host or cells: bovine liver

Columns and labels:
Format in all cases: biochemical
[1] = substrate: O=C(Nc1nc(OCc2ccccc2)c2ncn([C@H]3C[C@H](O)[C@@H](CO)O3)c2n1)OCc1ccc(O[C@@H]2O[C@H](C(=O)O)[C@@H](O)[C@H](O)[C@H]2O)c([N+](=O)[O-])c1; test: Enzymatic hydrolysis of prodrugs by E. coli β-glucuronidase in MOPS buffer; settings: other: E. coli β-glucuronidase, 37° C., pH 7.0
Description: (§1) The enzymatic hydrolysis of the prodrugs was investigated with both E. coli and bovine liver β-glucuronidase in MOPS buffer at pH 7.0. Prodrugs and p-nitrobenzyl alcohol (HPLC internal standard) were dissolved in the MOPS buffer (pH 7.0) at 37° C. Enzymatic cleavage was initiated by adding 0.2 Fishman units of E. coli β-glucuronidase (Sigma type IX-A) (42.8 units/mg of protein) or 10 Fishman units of bovine liver β-glucuronidase (Sigma type B-10) (10.2 units/mg of protein) to the incubation buffer. Aliquots (100 μL) of the reaction mixture were withdrawn at various times and were mixed with 100 μL of acetonitrile/0.1 M TEAA (6:4) to quench the enzymatic reaction. Prodrug and product concentrations were determined by HPLC. For determination of enzyme kinetic parameters, prodrug solutions at concentrations between 5 and 300 μM were incubated with a fixed amount of enzyme. Aliquots were withdrawn at time intervals varying from 1 to 20 min and the reactions were quenched as described above. Initial reaction velocities were determined at each substrate concentration. Non-linear regression methods were used to determine KM and Vmax values. Data were processed with Prism 3.0 software.

[2] = substrate: O=C(Nc1nc(OCc2ccccc2)c2nc[nH]c2n1)OCc1ccc(O[C@@H]2O[C@H](C(=O)O)[C@@H](O)[C@H](O)[C@H]2O)c([N+](=O)[O-])c1; test: as above; settings: other: E. coli β-glucuronidase, 37° C., pH 7.0
Description: as §1

[3] = substrate: O=C(Nc1nc(OCc2ccccc2)c2ncn([C@H]3C[C@H](O)[C@@H](CO)O3)c2n1)OCc1ccc(O[C@@H]2O[C@H](C(=O)O)[C@@H](O)[C@H](O)[C@H]2O)c([N+](=O)[O-])c1; test: Enzymatic hydrolysis of prodrugs by bovine liver β-glucuronidase in MOPS buffer; settings: other: bovine liver β-glucuronidase, 37° C., pH 7.0
Description: as §1

[4] = substrate: O=C(Nc1nc(OCc2ccccc2)c2nc[nH]c2n1)OCc1ccc(O[C@@H]2O[C@H](C(=O)O)[C@@H](O)[C@H](O)[C@H]2O)c([N+](=O)[O-])c1; test: as above; settings: other: bovine liver β-glucuronidase, 37° C., pH 7.0
Description: as §1

Protein | Km [1] [µM] | Vmax [1] [µmol/mg/h] | Km [2] [µM] | Vmax [2] [µmol/mg/h] | Km [3] [µM] | Km [4] [µM]
B1 | 41.1 | 677000 | 17.0 | 466000 |  | 
B2 |  |  |  |  | 362 | 244
